Reference: patent publication US20140178388A1 (INDUSTRIAL TECHNOLOGY RESEARCH INSTITUTE, published 2014)

B1: h145FabCSA trimer (Fab, V domains shown)
VH: EVQLQESGGGLVQPGKSLKLSCEASGFTFSGYGMHWVRQAPGRGLESVAYITSSSINIKYADAVKGRFTVSRDNAKNLLFLQMNILKSEDTAMYYCARFDWDKNYWGQGTMVTVSS
VL: DIQMTQSPSSLPASLGDRVTINCQASQDISNYLNWYQQKPGKAPKLLIYYTNKLADGVPSRFSGSGSGRDSSFTISSLESEDIGSYYCQQYYNYPWTFGPGTKVEIKR
notes: Trimeric Fab-collagen-like peptide fusion from the Superdex 200 peak 2 fraction; Expressed in NS0 cells; also called trimeric h145FabCSA
B2: hOKT3FabCSA trimer (Fab, V domains shown)
VH: QVQLVQSGGGVVQPGRSLRLSCKASGYTFTRYTMHWVRQAPGKGLEWIGYINPSRGYTNYNQKVKDRFTISRDNSKNTAFLQMDSLRPEDTGVYFCARYYDDHYCLDYWGQGTPVTVSS
VL: DIQMTQSPSSLSASVGDRVTITCSASSSVSYMNWYQQTPGKAPKRWIYDTSKLASGVPSRFSGSGSGTDYTFTISSLQPEDIATYYCQQWSSNPFTFGQGTKLQITR
notes: Trimeric Fab-collagen-like peptide fusion from the Superdex 200 peak 2 fraction; Expressed in CHO-S cells; also called trimeric hOKT3FabCSA; trivalent hOKT3FabCSA
B3: low-Fc binding anti-human CD3 antibody-hOKT3IgG-AA (antibody, V domains shown)
VH: B2 VH
VL: DIQMTQSPSSLSASVGDRVTITCSASSSVSYMNWYQQTPGKAPKRWIYDTSKLASGVPSRFSGSGSGTDYTFTISSLQPEDIATYYCQQWSSNPFTFGQGTKLQIT
notes: also called hOKT3IgG-AA (dimer)

What was measured:
[1] = molecular target: T1, mouse CD3 on mouse spleen T lymphocytes (mouse, UniProt P22646 22-189); assay: flow cytometry (MFI) on purified mouse spleen T lymphocytes, serial dilution
T1 construct: whole, on cells; also called mouse T lymphocytes

[2] = molecular target: T2, human CD3 (TCR-CD3 complex) on human T cells (human, UniProt P07766 23-207); assay: flow cytometry (MFI) on purified human T lymphocytes, serial dilution
T2 construct: whole, on cells; The other subunits of the complex on the cells are not described; also called CD3ε chain; CD3(+) Jurkat T cells

T1 sequence (P22646 22-189): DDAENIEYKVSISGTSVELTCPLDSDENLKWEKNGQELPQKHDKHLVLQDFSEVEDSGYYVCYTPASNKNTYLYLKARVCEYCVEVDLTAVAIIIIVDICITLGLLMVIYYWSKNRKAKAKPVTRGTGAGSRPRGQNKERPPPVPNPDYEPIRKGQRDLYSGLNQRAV

Row | Molecule | Kd [1] [nM] | fold greater binding strength than 145-2C11 [1] [fold] | Kd [2] [nM] | fold greater binding strength than hOKT3IgG-AA [2] [fold]
1 | hamster anti-mouse CD3 antibody (145-2C11) | 15 |  |  | 
2 | B1 | 4 | 3.75 |  | 
3 | B2 |  |  | 0.02 | 7.5
4 | B3 |  |  | 0.15 | 
